In experiment [1] the target is SplA allelic variant A6 (Staphylococcus aureus) (UniProt Q2FFS9).
Experiment [2] has as its target SplA allelic variant A3 (Staphylococcus aureus) (UniProt Q2FFS9).
The target in experiment [3] is SplA allelic variant A4 (Staphylococcus aureus) (UniProt Q2FFS9).
Experiment [4] concerns the target SplA allelic variant A5 (Staphylococcus aureus) (UniProt Q2FFS9).
In experiment [5] the target is SplA allelic variant A1 (Staphylococcus aureus) (UniProt Q2FFS9).
Experiment [6] has as its target T1, SplA wildtype (S. aureus strain USA300 variant) (Staphylococcus aureus strain USA300) (UniProt Q2FFS9).
T1 sequence: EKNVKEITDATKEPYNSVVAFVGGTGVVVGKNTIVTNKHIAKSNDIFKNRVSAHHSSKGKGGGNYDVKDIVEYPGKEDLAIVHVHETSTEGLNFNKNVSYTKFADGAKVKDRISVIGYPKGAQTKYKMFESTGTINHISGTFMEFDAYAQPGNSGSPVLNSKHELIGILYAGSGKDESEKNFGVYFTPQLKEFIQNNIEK

* marks the point of attachment. AMC = Cc1cc(=O)oc2cc(N*)ccc12

The record followed here is publication PMC12783888.

With Ac-Tyr-Leu-Tyr-{AMC}, the KM of Michaelis-Menten kinetics, cleavage of the fluorogenic substrate (AMC release) in experiment [1] turned out to be 109 µM; in experiment [2], 39 µM; in experiment [3], 65 µM; in experiment [4] it was 35 µM; in experiment [5], 54 µM; in experiment [6] it was 49 µM.

B1: Ac-VWLY-AMC (peptide)
peptide: Ac-VWLY-{AMC}
SMILES: CC(=O)N[C@H](C(=O)N[C@@H](Cc1c[nH]c2ccccc12)C(=O)N[C@@H](CC(C)C)C(=O)N[C@@H](Cc1ccc(O)cc1)C(=O)Nc1ccc2c(C)cc(=O)oc2c1)C(C)C
Regarding B1, the KM of Michaelis-Menten kinetics, cleavage of the fluorogenic substrate (AMC release) was determined as 19 µM in experiment [1]; 11 µM in experiment [2]; 23 µM in experiment [3]; 13 µM in experiment [4]; 26 µM in experiment [5]; 11 µM in experiment [6].
